Experimental data as given in patent US6896884B2, “Human chitinase, its recombinant production, its use for decomposing chitin, its use in therapy or prophylaxis against infection diseases” (Universiteit va Amsterdam, priority 1995, dated 2005).

Experiments:
[1] = hydrolysis of 4-methylumbelliferyl-chitobioside versus 4-methylumbelliferyl-chitotrioside; format: biochemical; settings: 4-methylumbelliferyl substrates
Source text: Purified 50 kDa and 39 kDa tissue chitotriosidases, and 50 kDa and 39 kDa chitozymes produced by recombinant DNA technology, are able to hydrolyse 4-methylumbelliferyl-chitotrioside and 4-methylumbelliferyl-chitobioside, the ratio of chitobioside activity to chitotrioside activity being about 0.7. Furthermore, p-nitrophenyl-chitotrioside and p-nitrophenyl-chitobioside are also efficiently hydrolyzed.

[2] = format: in vitro ADME
Description: Production of the chitozymes via conventional technology in insect cells, plant cells, or vertebrate cells should be possible. Finally, transgenic animals could be envisioned as producers of large quantities of chitozymes in their milk for the applications described above. […] Successful proteolytic cleavage is only accomplished after denaturation of the enzyme, e.g. after heating in the presence of sodium dodecylsulphate. […] In analogy, chitotriosidase is stable at 37° C. in macrophage-conditioned medium that contains large quantities of various other secreted lytic enzymes.

[3] = chitin azure degradation (release of soluble azure at 550 nm); format: biochemical; settings: chitin azure 10 mg/ml, citrate/phosphate buffer pH 5.2; control chitinase from Serratia marcescens
Description: Chitin azure (Sigma) suspended in citrate/phosphate buffer (pH 5.2) at a final concentration of 10 mg/ml was used to monitor chitinase activity. Chitin degradation was detected spectrophotometrically at 550 nm by determination of release of soluble azure (18). Chitinase from Serratia marcescens (Sigma) was used as control. […] See for example ref.18.

Mucor mucedo = assay: fungicidal effect on hyphal growth; format: cell-based; settings: for effect on hyphal growth, microscopical analysis: enzyme solution in 0.15 M NaCl pipetted on hyphal tips
Description: To test whether human chitotriosidase can exert an antifungal action, a chitinous fungus (Mucor mucedo) was grown on plates (containing malt extract, peptone, glucose and agar) under a Cellophane membrane in order to keep the hyphae flat against the agar surface (see ref.16). Individual sectors were cut out and mounted on microscope slides. Purified chitozyme 50 and chitozyme 39 were dialysed against 0.15 M sodium chloride. Samples of enzyme-containing solutions, and 0.15 M NaCl were pipetted on the hyphal tips. […] Application of saline had no effect. Negative effects on hyphal growth were detectable using chitozyme solutions with a concentration of enzyme as little as 0.005 mg/ml.

[4] = format: physicochemical
[5] = tested on: cell wall suspension of Micrococcus lysodeikticus; assay: lysozyme activity towards bacterial cell wall suspension; format: biochemical
a variety of proteases = format: in vitro ADME
Description: Successful proteolytic cleavage is only accomplished after denaturation of the enzyme, e.g. after heating in the presence of sodium dodecylsulphate. […] In analogy, chitotriosidase is stable at 37° C. in macrophage-conditioned medium that contains large quantities of various other secreted lytic enzymes.

[6] = rat, in vivo
Source text: A prerequisite for the intravenous application of the chitinase is insight in its clearance. In the blood stream the most predominant isozyme is the 50 kDa protein. In tissue predominantly a 39 kDa isozyme is encountered. This appears to be formed by uptake of 50 kDa protein followed by proteolytic cleavage to a 39 kDa form that is remarkably stable in the lysosomal environment. […] Clearance is not a very rapid process as monitored by the disappearance of activity of human chitotriosidase in the blood stream of intravenously injected rats, the half life being about one hour. Only minor amounts of chitotriosidase are daily excreted into the urine. It is conceivable that some enzyme is efficiently recaptured by proximal tube epithelial cells since kidney is found to be extremely rich in ‘lysosomally processed’ 39 kDa enzyme.

| Substance | ratio of chitobioside activity to chitotrioside activity [1] | effect on hyphal growth, microscopical analysis (Mucor mucedo) | stability against a variety of proteases (a variety of proteases) | clearance from the circulation [6] | also measured |
| --- | --- | --- | --- | --- | --- |
| 50 kDa tissue chitotriosidase: 50 kDa chitotriosidase purified from Gaucher disease spleen | about 0.7 | – | – | – | – |
| chitotriosidase: human chitinase produced by macrophages, named chitotriosidase; isoform not specified at the place | – | – | – | – | loss of enzyme activity on prolonged incubation [2]: does not result in detectable loss of enzyme activity; stability in macrophage-conditioned medium [2]: stable; chitinase activity, related to hydrolysis of 4-methyl-umbelliferyl-chitotrioside [3]: comparable to that of the bacterial chitinase; effect on fungal growth (Mucor mucedo; Mucor species): inhibited growth; enzyme activity after spotting on filter paper ([4]; storage for several days at room temperature): enzyme activity is still recovered; loss of enzyme activity upon storage and freeze-thaw ([4]; −20 or −70° C., repeated cycles of freezing and thawing): No loss of enzyme activity; activity towards Micrococcus lysodeikticus cell wall suspension (lysozyme activity) [5]: No significant activity |
| chitozyme 39: recombinant human chitotriosidase isozyme of 39 kDa, encoded by chi.39 cDNA (SEQ ID NO:6), produced by transfected COS cells | about 0.7 | immediate cessation of hyphal growth | extremely stable | not immediately cleared | – |
| chitozyme 50: recombinant human chitotriosidase isozyme of 50 kDa, encoded by chi.50 cDNA (SEQ ID NO:4), produced by transfected COS cells | about 0.7 | immediate cessation of hyphal growth | extremely stable | not immediately cleared | half life in the circulation, compared between isozymes [6]: somewhat longer than that of the 39 kDa enzyme |
| chitozyme: recombinant chitotriosidase, isozyme not specified at the place | – | – | – | – | stability when added to cow milk [2]: completely stable |
| tissue chitotriosidase: chitotriosidase purified from Gaucher disease spleen, isoform not specified | – | – | – | not immediately cleared | – |
